Paper doi:10.1101/2024.09.05.611129 (bioRxiv, 2024)

Molecular target: the molecule itself
Assay: SEC

B1: Mycobacterium tuberculosis catalase-peroxidase KatG (enzyme)
chain: MPEQHPPITETTTGAASNGCPVVGHMKYPVEGGGNQDWWPNRLNLKVLHQNPAVADPMGAAFDYAAEVATIDVDALTRDIEEVMTTSQPWWPADYGHYGPLFIRMAWHAAGTYRIHDGRGGAGGGMQRFAPLNSWPDNASLDKARRLLWPVKKKYGKKLSWADLIVFAGNCALESMGFKTFGFGFGRVDQWEPDEVYWGKEATWLGDERYSGKRDLENPLAAVQMGLIYVNPEGPNGNPDPMAAAVDIRETFRRMAMNDVETAALIVGGHTFGKTHGAGPADLVGPEPEAAPLEQMGLGWKSSYGTGTGKDAITSGIEVVWTNTPTKWDNSFLEILYGYEWELTKSPAGAWQYTAKDGAGAGTIPDPFGGPGRSPTMLATDLSLRVDPIYERITRRWLEHPEELADEFAKAWYKLIHRDMGPVARYLGPLVPKQTLLWQDPVPAVSHDLVGEAEIASLKSQIRASGLTVSQLVSTAWAAASSFRGSDKRGGANGGRIRLQPQVGWEVNDPDGDLRKVIRTLEEIQESFNSAAPGNIKVSFADLVVLGGCAAIEKAAKAAGHNITVPFTPGRTDASQEQTDVESFAVLEPKADGFRNYLGKGNPLPAEYMLLDKANLLTLSAPEMTVLVGGLRVLGANYKRLPLGVFTEASESLTNDFFVNLLDMGITWEPSPADDGTYQGKDGSGKVKWTGSRVDLVFGSNSELRALVEVYGADDAQPKFVQDFVAAWDKVMNLDRFDVR
  stoichiometry N: 2
